Results reported in US20230333112A1 (MARENGO THERAPEUTICS, published 2023).
Changes are numbered by the printed parent chain. Numbers in names are those of the source.

T1: Human NKp30 (BKM0179) (human, UniProt O14931 19-135, limits assumed)
T1 sequence (looked up): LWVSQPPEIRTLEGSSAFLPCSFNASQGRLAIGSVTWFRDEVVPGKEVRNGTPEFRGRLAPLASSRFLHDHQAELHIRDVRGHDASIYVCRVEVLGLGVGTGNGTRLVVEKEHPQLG

B1: BKM0138 (antibody, V domains shown)
VH: EIQLLESGGGLVQPGGSLRLSCAVSGFSITTTGYHWNWVRQAPGKGLEWVGYIYSSGSTSYNPSLKSRFTISRDTSKNTFYLQMNSLRAEDTAVYYCARGDWHYFDYWGQGTMVTVSS
VL: DSVTTQSPLSLPVTLGQPASISCSGEKLSDKYVHWYQQRPGQSPRMLIYENDRRPSGVPDRFSGSNSGNDATLKISRVEAEDVGVYFCQFWDSTASAVFGGGTKVEIK
notes: also called BJM0411 VL-N95A
B2: BKM0139 (antibody, V domains shown)
VH: B1 VH
VL: B1 VL with D92A, A95N
notes: also called BJM0411 VL-D92A
B3: BKM0145 (antibody, V domains shown)
VH: B1 VH with N62A
VL: SSETTQPPSVSVSPGQTASITCSGEKLSDKYVHWYQQKPGQSPVMVIYENDRRPSGIPERFSGSNSGNTATLTISGTQAMDEADYFCQFWASTASAVFGGGTQLTVL
notes: also called BJM0407 VH-N60A-VL-D92A-N95A
B4: BKM0143 (antibody, V domains shown)
VH: B1 VH with N62A
VL: B3 VL with A91D, A94N
notes: also called BJM0407 VH-N60A
B5: BKM0144 (antibody, V domains shown)
VH: B1 VH with N62A
VL: B1 VL with D92A
notes: also called BJM0411 VH-N60A-VL-D92A-N95A
B6: BKM0142 (antibody, V domains shown)
VH: B1 VH with N62A
VL: B1 VL with A95N
notes: also called BJM0411 VH-N60A
B7: BKM0141 (antibody, V domains shown)
VH: B1 VH
VL: B3 VL with A91D
notes: also called BJM0407 VL-N95A
B8: BKM0140 (antibody, V domains shown)
VH: B1 VH
VL: B3 VL with A94N
notes: also called BJM0407 VL-D92A

Target: T1, Human NKp30 (BKM0179)
Assay: SPR (BIAcore T200); human NKp30 BKM0179 captured on a CM5 chip via anti-mouse Fc, antibody construct injected at 3.9-125 nM; 1:1 model
Protocol: In this example, a series of exemplary anti-NKp30 antibody molecules were analyzed for their binding affinity for NKp30. Briefly, surface plasmon resonance (SPR) measurements were performed by using the BIAcore T200. Human NKp30 (BKM0179) was immobilized on a CM5 chip via anti-mouse Fc antibody to a response of 50 RU. […] The data was fit using a 1:1 binding model.

| Kd [nM] | Binder |
| --- | --- |
| 3.2 | B1 |
| 3.2 | B2 |
| 4.2 | B3 |
| 1.45 | B4 |
| 6.4 | B5 |
| 1.28 | B6 |
| 3 | B7 |
| 3.3 | B8 |
